The source of these data is the DeepSol protein solubility set.

The nature of the series: soluble on expression in E. coli; label from the status in PepcDB or PDB records.
Take “MAELDEAALLGDGNEQHDGPIDENALLDGKELKEEDIDDLYDEAIAPTNSTESAKPVSPTITTVTAPTAGIGAKPATSSEGRKYCCYVGNLLWYTTDADLLKALQSTGLARSQFADMKFFENRTNGQSKGYALLVLNSDAAVKQTMEILPTKTIHGQSPTVLSYNKTNQAKLEDAQAKNQTRPDVKKKGFEEGCVNMGTIRIGAGGQTGRTGTSVSGRSGPPPLMMQQVRPTPLMSQPTSLPSNLNQAPQMRLQINGQQVPLMNRAPVPQQTMLGNGPLGGMNQQIQQQPQMMMGQQVRPMMQTSMGIQPMMGMNAPPPMNNQFQNRPPQLGSMGVQPLMQMNTAMRPPINGLPPVHVNPQMFPGLQGTVLSDAEFEDVMTRNQTVSSSAIARAITDASVGDIKGASETILTAIQLIKNSRIGHDERCRQLVYGLEHTLKGLESKGYSSRSKSHRDRSRSRERDRKRRRRSRTRSRSYSRSPSPRRRRY”: the “soluble on expression in E. coli” value is “soluble”. With “MVFTPLDVRTIVSLPSCPKCNSEYTYEDGSLLICPECAHEWSADAGSADASDDVKVIKDSTGNVLQDGDTITVIKDLKVKGSSLVVKVGTKVKNIRLVDGDHDIDCKIDGIGAMKLKSEFVRKV”, the “soluble on expression in E. coli” value is “not soluble”.

For “MGSDKIHHHHHHGAGVSTGSKLPDFRGKQGVWTLQAEGKHAEGVDFQVARPGVSHKSILALHKAGYIKTIITQNVDGLDRKVGIPVEDLIEVHGNLFLEVCQSCFSEYVREEIVMSVGLCPTGRNCEGNKRTGRSCRGKLRDATLDWDTEISLNHLDRIRKAWKQTSHLLCIGTSLEIIPMGSLPLDAKSKGIKTTTINYQETAHEKIVETAIHADVKLILYSLCNALGVNVDLGDDLPDEVPIPLKIS”, the “soluble on expression in E. coli” value is recorded as “not soluble”. As for “MMQIDRNEKADAWLAHTQREQSGRLTIFLGAAPGVGKTYAMLTRAHELMQQGKQVVVGVVETHGRADTARLIAGLNVIPRRVVEYQDRKLEEMDLDQILHIKPEIVLVDELAHRNVPGSRHEYRWQDVNEILDAGINVYSTLNIQHLESLNDVVYQITGIRVTETVPDALLKRLKDIRLVDLPVPELLERMKHGKIYLDDMAPHALQGFFKPAHLTALRDLAIQTVAGQV”, the “soluble on expression in E. coli” value is reported as “not soluble”.

With “MGSDKIHHHHHHMANSRKHLIYLVYGRQTYHQEALFSIASAFAHLRDGAAHGLTVRVYTDDPSPYAGLPVQVREVTAEELVAWCQPHGYHFRAKHVALRDALEEADQALLIDTDTFFHSSPLRLFDRIQPGSLLCNAIGARYGEHRNFPLYRDLSPYLFERGWADDEMHQLNSGVIGLPREEAKILDRSLELMDELYPIANGAYTLEEFVLAVAAHKRLELVGCTDLIHHYWSRKQLFRAKIQAWLCKHGSSLLSAAALDDTLKVTDRLPRPPRAKRLLYKLGTLPLPAPMRQFSIELLYGCHEYSNEFDRACGPVWWEKAATNAIERYPQEPIAEQIEDWLNHSLLRNLLGSRANEIRQHLRQRDLL”, the “soluble on expression in E. coli” value is given as “not soluble”.

Consider “MGSDKIHHHHHHMAWIKTVAFGDATGKLRKLYDRVTGPGGNVDNIMMAHSLRPHTMEGHMALYKNVLHHSGNELPKWVLEMIGVWVSSLNGCAYCVEHHFAGLKRLMRDDARAEAIRAAIEARDIKALPVRACEMAAMDYARKLTQAPTEMMAADLEPLRAEGLSDGHILEINQVVAYFAYANRTVLGLGCSTEGDVLGLSPGNSDDPTDWGHA”, for which the “soluble on expression in E. coli” value is listed as “not soluble”. Regarding “MKKMLLATALALLITGCAQQTFTVQNKQTAVAPKETITHHFFVSGIGQKKTVDAAKICGGAENVVKTETQQTFVNGLLGFITLGIYTPLEARVYCSK”, the “soluble on expression in E. coli” value was “soluble”. Take “MAHHHHHHMQSNSAPVSYGAQLRASMQTLRANDTQFEQFTRGLGAVLQQWTALQLVAQHCDSRAPAVLYEDLCAWHKHDGEVYVDDMEVYFEEFFDNIRSARIEDDSMQEVGTVLHDMYCRCCLNDFSLVEHYLETLAMYVQTNPVAMSVNGGTNENLEDDAEEDAELGGDAVCEEGVDNEDEESEPMQAPTPKAPQQPPQPPRHQQQPQRKKRKNTSVRSRDGWNIVQ”: the “soluble on expression in E. coli” value is “not soluble”.

As to “MQAFRAPSLATIDDVCGTRADGYDGAPLRSIPDFAVIVPMHNEEASVETLVAEIVTACQPVGQFEIVVVDDASSDRTVNAVLSLGDRYPMLRLVRHDRQGGQSAAIHSGVQAARAPVICMLDGDGQNPPDNLPALLAPLLSATATSRLGLVAGQRVGRRDTLGKRLSSRFANGLRARILKDGTRDTGCGLKAFRRDAYLALPYFDHHHRYFPALFNRDGWQVAHVDVTHRARLHGNSHYTNIGRALVGIHDLIGVVWLLRRRKRSSWAETFKTETSPLEHHHHHH”, the “soluble on expression in E. coli” value is recorded as “soluble”.

Consider “EMIHHAKNQLIMCSPYFIPDESMLEAVTSACYRGVRVELLVSEQADQFVVDHAQSSYYQTLLEAGVHIYRYHAPAVLHSKFLIADPHGVAVSVMGSSNMDMRSFGLNYEVSLMTLQGQLTHLLYELAETYKENSTELTLEEWNQRGIVRRYVDNIMKLTSALQ”, for which the “soluble on expression in E. coli” value was “not soluble”. On to “MGSSHHHHHHSSGLEVLFQGPHMSYQVLARKWRPQTFADVVGQEHVLTALANGLSLGRIHHAYLFSGTRGVGKTSIARLLAKGLNCETGITATPCGVCDNCREIEQGRFVDLIEIDAASRTKVEDTRDLLDNVQYAPARGRFKVYLIDEVHMLSRHSFNALLKTLEEPPEHVKFLLATTDPQKLPVTILSRCLQFHLKALDVEQIRHQLEHILNEEHIAHEPRALQLLARAAEGSLRDALSLTDQAIASGDGQVSTQAVSAMLGTLDDDQALSLVEAMVEANGERVMALINEAAARGIEWEALLVEMLGLLHRIAMVQLSPAALGNDMAAIELRMRELARTIPPTDIQLYYQTLLIGRKELPYAPDRRMGVEMTLLRALAFHPRMPLPEPEVPRQ”, for which the “soluble on expression in E. coli” value is listed as “soluble”. On to “TDAFFFAGFLPNAAAARKTRLETLRGVPGTLVFYESPKRLAASLRDMAEVLGGERPAALCRELTKKFEETRRDTLAGLAEALAEAPVKGEVVLLVDRARSG”, for which the “soluble on expression in E. coli” value is “not soluble”. Turning to “MERVAPNGQFKDVGVDQLFFSTTDAQGRIQETNNTFVELSRYTEEELRNAAHNIIRHPFMPGGVFKIMWDKLQRGETFAGYVRNLAHSGETYDVFATVTPIPGTHDYLSVRQRPCHDDHRALAMTIYAEVGDYEAQLRKDGMSAREAAEAGAGLIGDKLRESGFDNFDAYAHAMLPWEVFCRENMSTGLPQREVAGDLGTELAQAHDVHDHLDEWMLRLDELLTTAQQLGEAREELVDSLGQTSSLGDTIDARSASETLQIVQFQLNVWKGMQKIVDSYVVELAELITTLANDTLRERFQISVSRLHTAMLATFLAELIDGTSATANTEHKVALLKATMRDSLEAIDRGAFHRAQLVRSTISCIRTVTSLMESPRSLLTEAIREAQSLNNDELSAAIATELERSERAANNMHQLVATLESTATTPDIAAMLAEL”, the “soluble on expression in E. coli” value was “not soluble”. Then “ADPWQECMDYAVTLARQAGEVVCEAIKNEMNVMLKSSPVDLVTATDQKVEKMLISSIKEKYPSHSFIGEESVAAGEKSILTDNPTWIIDPIDGTTNFVHRFPFVAVSIGFAVNKKIEFGVVYSCVEGKMYTARKGKGAFCNGQKLQVSQQEDITKSLLVTELGSSRTPETVRMVLSNMEKLFCIPVHGIRSVGTAAVNMCLVATGGADAYYEMGIHCWDVAGAGIIVTEAGGVLMDVTGGPFDLMSRRVIAANNRILAERIAKEIQVIPLQRDDED”, with “soluble”; and “GPGSMQLQSRAPEHFSTPFFSSPSSSVAYESGCSLDALERLVHFTGAGADACLYAVHPPQAKGTDSAALTPTTEGLRYWLNPSVRARPTTATCEITNLGPPFFASTSTAVLRISATPLFVDGRCFPTRCVVSLATSAQRLDGVSLRPVVVTEWNLTASGAAGVCTTTVPLRTLYHLAVLISSSAPATGVEEVRLYLHLRFMGCSDGSDTHRIAAVRLRYEQLGTAAEVLPQLLQRRQRAAAHVMLPSPYDVKYHSEGRFTRAGAPLEEVEVGVIAGSSTATSSGRKDMGDDAGKSLFVGAKERRTHTSPPSSTRMRSDGCETRGDRRRGRAPRGC”, with “soluble”. In the case of “MLTLLGKIAHFREPLSRQLSLSDTNVTPQISRCAKLNLSVKQKKLLRQSFNAMNSGGTFLKLMEKIFRRLETKCPDMRSIFLTTAFVNSLSRERQTPPLVKTEYDHCKCMVGIFERLIENLENINEQLTMIRHYGEKHAQMAESGFTGAMIEQFGEISVFVIGSQDVVKFNHETVKAWRLLLACVTDEMKVGFDRMSRINGRRNSCNPPSTVPSGN”, the “soluble on expression in E. coli” value was “not soluble”. Regarding “MSARMDNDTAALLERIRSDWARLNHGQGPDSDGLTPSAGPMLTLLLLERLHAALGREIERTYAASGLNAAGWDLLLTLYRSAPPEGLRPTELSALAAISGPSTSNRIVRLLEKGLIERREDERDRRSASIRLTPQGRALVTHLLPAHLATTQRVLAPLSAQEQRTLEELAGRMLAGLEQGV”, the “soluble on expression in E. coli” value is listed as “soluble”. As for “MGSDKIHHHHHHMNKEIPKFLENTQIEKFICNELDYKKEILRELKELLENFNTINVKNSINSKYIALLMLSIFNAFHFKKELNKNLVNSLDAIIFAIKSIGTDESFIVLFKAFLHANVEVSSNEDAPGEIIIKLLGNIKSPIEFNIAAKNQNKLKKITAKHAGFKKALTSNYMPKDYKNSVYEFIKILIPIGRIVKIIDKKQIEIKGTRTKKFSTADHFF”, the “soluble on expression in E. coli” value is “not soluble”.

On to “MGSDKIHHHHHHMNLKHIEAFRAVMVSGSMTAAAKALFTSQPNVSRLIAQLERDTGLQLFQRSGVRLIPTSEGEAFFREVERAFVGLQGLANAAAQIRNLGSGRLRIAAMPSAGMTLVPHAIKRFVELFPDVTVSLHVNTSGTVNHWTASQFCDLGVAVYVSEASDCEVEQLSDLAAVCVMPAAHRLAAKRSIKPEDLEGESFISLCHGDGTRALMDEVFQRAGVQRVMAIEAQYTAMCCEMVRHGMGVTLAHPIVARDFAGPDIAIRPFLPATRFQTYLLFPPHRPRERLASAFVEVLRELHDELLAEVVVPTPSVGRRRVVRSASKG”, for which the “soluble on expression in E. coli” value is “not soluble”.

With “MPVKKVEKNILVLHGADKMFELVDKVEDYPHFLPWYSKTEVIGRSGNELKARLFMDYMHVRQSFATHNRNIPGREIRMELLEGPFKTLRGTWKFIDLGDDMCKIEFNLEYDFSNAVLSALISPVFNHLSTTLVEAFVKEADRRYA”, the “soluble on expression in E. coli” value is listed as “not soluble”. In the case of “MRRLKRDPLERAFLRGYQNGITGKSRDLCPFTHPTTRQSWLNGWREGRGDNWDGLTGTAGLQRLNQLQHVLEHHHHHH”, the “soluble on expression in E. coli” value was “not soluble”.

For the sequence “SDVLASYSIFQELQLVHDTGYFSALPSLEETWQQTCLELERYLQTEPRRISETFGEDLDCFLHASPPPCIEESFRRLDPLLLPVEAAICEKSSAVDILLSRDKLLSETCLSLQPASSSLDSYTAVNQAQLNAVTSLTPPSSPELSRHLVKTSQTLSAVDGTVTLKLVAKKAALSSVKVRSLISAHGRDVSGVLHEAMSSRGTTGNTQVQSPSNATTATGVFPGLTILPST”, the “soluble on expression in E. coli” value is recorded as “soluble”. Then “AEGVKTTAEAPAAEPALAAYVPMPRPFLFNLPGPDRARLVEIKVQLMVRGQDDEVLTQKHIPLIEDALLTTFSGADVQKLSTQAGKDELRQLALLSVQNTLQPVTGRKVVEKVLFTGFVMQ”, with “not soluble”; and “MTLGARLVAPMIILLLFIPIELVKAEVITLTPETFSDKIKEKDTAWFVKFCVPWCKHCKKLGNLWEDLGKAMEGDDEIEVGEVDCGTSRAVCTKVEIHSYPTFMLFYNGEEVSKYKGKRDVESLKAFVVEETEKAAEKAQLEDKEL”, with “soluble”.
